The source of these data is article PMC5687031.

The test deals with full-length Spc29^2-253 (S. cerevisiae) (UniProt P33419). Briefly: SAXS.

Chain of full-length Spc29^2-253 (P33419 2-253): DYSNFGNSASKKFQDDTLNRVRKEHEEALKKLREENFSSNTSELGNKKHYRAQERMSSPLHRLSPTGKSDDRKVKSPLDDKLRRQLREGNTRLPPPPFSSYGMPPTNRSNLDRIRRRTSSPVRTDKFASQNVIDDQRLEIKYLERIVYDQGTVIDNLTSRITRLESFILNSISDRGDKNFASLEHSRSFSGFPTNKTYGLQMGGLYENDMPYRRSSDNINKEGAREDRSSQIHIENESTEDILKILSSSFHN

By stoichiometry N is commonly meant the number of molecules, sites or subunits per partner or assembly. In the case of “full-length Spc29^2-253 (from UniProt P33419 2-253) (natural protein)”, the stoichiometry N came to 3 chains.
